{
  "source": "a protein production outcome set (Wang et al. 2014)",
  "data": [
    {"experiment": "label from the status in PepcDB records", "values": [
      {"sequence": "VEIRTGEFEDIAGITDIFNFYIEHTNARFEEFPFTLENREEWFSQFSRTTKYQIYVAVENGVLQGFACSQKYRAIPAFDDTVEVSVYLAQEAKGKGLGSKLYTQLFSSIRAYGVHRILSGVALPNDASVALHKRFGFREVGIFNEYAKKHGQYISSVWLEKALNVESAL", "protein production": "failed"},
      {"sequence": "VFHPVECSYCHSESMMGFRYRCQQCHNYQLCQDCFWRGHAGGSHSNQHQMKEYTSW", "protein production": "not failed"},
      {"sequence": "VGDGKNQIFVKSLDGYREVQITDEKEGVSTFKWGPTGKGLYYVTQSKECEEIKKRKDLYGDFQHIGKEHQNNCLYYIEIEKVIQSDTDEHKNRVVYQLTDGKDFHIHEFDISNDGKKVVFMATPSSNMADYINGDLYILHIKAGELQKLNVDKLLGGSVCFSPDGSEICYTASIREKGYYRNHIQDSTLEIYDINTGELIQPLTDFD", "protein production": "failed"},
      {"sequence": "VGVRRENATATGVLLIPDGPDCPRPYPILTWGPSTSAQRHVGQDKTIVNANGNTPLVTRLASQGYVLVSPDYLGLGDSDYPFHPYLHLFTEVSSTIDAVRAARDVLWHSNTPLSNKVMLSGFSQGGQAALAVQREIEAHQSLSQEFSLVASAPISGPYALSQTILDSWSGRNK", "protein production": "failed"},
      {"sequence": "VIAAHGWAGDATVWRAWQQRFEARGWHWDAIERGYGQREPHQPSWAELPGQRLVIAHSLGLHLLPEKVLQQADAVVSLAGFAAFVPAGAAGRALGVALKGMASCLGTSDEPAMLRKFLSRCASPLPLSALPNNPLLRGMHPSGRQRLQDDLVLLQQCQSLPDGWPEGASVLVVQGEQDAIVCPDSRTQLLQALPPSRTDHRLRPDEGHAVVTPAVLDLVVRWAGN", "protein production": "failed"},
      {"sequence": "VINLKELKILHTSDWHLGVTSWTSSRPVDRREELKKALDKVVEEAEKREVDLILLTGDLLHSRNNPSVVALHDLLDYLKRMMRTAPVVVLPGNHDWKGLKLFGNFVTSISSDITFVMSFEPVDVEAKRGQKVRILPFPYPDESEALRKNEGDFRFFLESRLNKLYEEALKKEDFAIFMGHFTVEGLAGYAGIEQGREIIINRALIPSVVDYAALGHIHSFREIQKQPLTIYPGSLIRIDFGEEADEKGAVFVELKRGEPPRYERIDASPLPLKTLYYKKIDTSALKSIRDFCRNFPGYVRVVYEEDSGILPDLMGEIDNLVKIE", "protein production": "not failed"},
      {"sequence": "VIVESLVYHLSGKTYESRLVYEPGALGRPGLVMAPNWMGIGEGAERIAKEVAEKGYVVLIADLYGQSVRPSNADEAGVAMMPLKNDRGELRKRMQEALAQLLGQSKALLEPGKVATFGFCFGGCCALELARSGADLRAAVSFHGTLDTPNPEDAKRIKGSVLVLHGASDPLVPKEQLPAFEDEMNAAKVDWQLLSYGGAVHSFTDPNANMPGKMQYDRRTSERAFRSMHNLLSEVF", "protein production": "failed"},
      {"sequence": "VKPKGAFKAFTGEGQKLGSTAPQVLSTSSPAQQAENEAKASSSILIDESEPTTNIQIRLADGGRLVQKFNHSHRISDIRLFIVDARPAMAATSFILMTTFPNKELADESQTLKEANLLNAVIVQRLT", "protein production": "failed"},
      {"sequence": "VKSIFEIDIEKLADSGVKGIITDLDNTLVGWDVKEPTKGVKSWFAKAKDLGITVTIVSNNNKSRVSSFSSNLGVDYIFKARKPMGKAFKMAIKKMKIQPRETVVVGDQMLTDVFGGNCNGLYTIMVVPVKRTDGLITKFN", "protein production": "not failed"},
      {"sequence": "VLRWITAGESHGRALVAVVEGMVAGVHVTSADIADQLARRRLGYGRGARMTFERDAVTVLSGIRHGSTLGGPIAIEIGNTEWPKWETVMAADPVDPAELADVARNAPLTRPRPGHADYAGMLKYGFDDARPVLERASARETAARVAAGTVARAFLRQALGVEVLSHVISIGASAPYEGPPPRAEDLPAIDASPVRAYDKAAEADMIAQIEAAKKDGDTLGGVVEAVALGLPVGLGSFTSGDHRLDSQLAAAVMGIQAIKGVEIGDGFQTARRRGSRAHDEMYPGPDGVVRSTNRAGGLEGGMTNGQPLRVRAAMKPISTVPRALATVDLATGDEAVAIHQRSDVCAVPAAGVVVETMVALVLARAALEKFGGDSLAETQRNIAAYQRSVADREAPAARVSG", "protein production": "not failed"},
      {"sequence": "VMQMDRQPLVDPFGDYFQEFLSNAQNGQFFTPFGVCELMNQLITAPKVSDQPKQGDRRVLDPACGSGRLLLSAAQKDRALTFVGIDISYTCCLMTIINLCLNSLNGEVLHMNALTDQYWHRWL", "protein production": "failed"},
      {"sequence": "VPKLVDHDERRRSITAAAWRLIAARGIEAANMRDIATEAGYTNGALSHYFAGKDEILRTSYEHISEATDRRIAEALGDATGLDALRILCREVMPINEEQLLEARIAASLWPRAMYDEQMAATNRRTMDNWREQMAIFLEQAREEGSVGDIDVTIVVEQLLNMMMGMQILGVLTPGETSSERQLEMLEQFVAAL", "protein production": "not failed"},
      {"sequence": "VPYAVEGRNYQGDLYLPCERIRAGLVLLPGAAEEGKDDPRLQAFAETLARARFAVLVPDLGGFRSLRAGSRDIGETADAILWLSSRPGLSPGGKCGVAALSYAGGPALLAALEPRAGQRVRFLVTVGGYYDLRNVLTFFTTGWYRDGDRWRRGTPNNYGKWVFVLANTDRIKNVRDRTALEKLARRKMDNPAARTDDLVRGLGPEGKSLYDFFANTDPRQVPALVERLPTPIRRDLAALDPSRRDLRGLTARLIIIHGRDDDIIPAAESEALARAVPRDRRGLFVLDGLMHVELKPKLTDAFRLWRAVSAILRER", "protein production": "failed"},
      {"sequence": "VQRCVIIQKDQHGFGFTVSGDRIVLVQSVRPGGAAMKAGVKEGDRIIKVNGTMVTNSSHLEVVKLIKSGAYVALTLLGSS", "protein production": "not failed"},
      {"sequence": "VQRPWLAPLPGAPMNACRLLLCFPYGGGGASAFNDLSRLADVGVATWAVKLPGREDRSMEAPVTRVANVIEAIVDALQSVGIPYAFYGHSFGAGLALDVAHALAERDRPLPTHLVLSGRMPPHTGYSPLLGAMDDNQLWQHVCSESLLPLPTDASCSFARHALGKLKADLALNAQLTYRFIRPLPVPLYVLNGQDDPLLELHRLDEWQRYTSTSFHSEYVPGGHFFFNINFQLLYLPLLTALD", "protein production": "not failed"},
      {"sequence": "VQVGNCLQVMWLADRHSDPELYTAAKHCAKTHLAQLQNTEEFLHLPHRLLTDIISDGVPCSQNPTEAIEAWINFNKEEREAFAESLRTSLKEIGENVH", "protein production": "not failed"},
      {"sequence": "VRQVEEYIEANWMRPITIEKLTALTGISSRGIFKAFQRSRGYSPMAFAKRVRLQHAHNLLSDGATPTTVTAAALSCGFSNLGHFARDYRDMFGEKPSETLQRARP", "protein production": "not failed"},
      {"sequence": "VTATETVRVRFCPSPTGTPHVGLVRTALFNWAYARHTGGTFVFRIEDTDAQRDSEESYLALLDALRWLGLDWDEGPEVGGPYGPYRQSQRAEIYRDVLARLLAAGEAYHAFSTPEEVEARHVAAGRNPKLGYDNFDRHLTDAQRAAYLAEGRQPVVRLRMPDDDLAWNDLVRGPVTFAAGSVPDFALTRASGDPLYTLVNPCDDALMKITHVLRGEDLLPSTPRQLALHQALIRIGVAERIPKFAHLPTVLGEGTKKLSKRDPQSNLFAHRDRGFIPEGLLNYLALLGWSIADDHDLFGLDEMVAAFDVADVNSSPARFDQKKADALNAEHIRMLDVGDFTVRLRDHLDTHGHHIALDEAAFAAAAELVQTRIVVLGDAWELLKFFNDDQYVIDPKAAAKELGPDGAAVLDAALAALTSVTDWTAPLIEAALKDALIEGLALKPRKAFSPIRVAATGTTVSPPLFESLELLGRDRSMQRLRAARQLVGHA", "protein production": "not failed"},
      {"sequence": "VTDVLLCVGNSMMGDDGAGPLLAEKCAAAPKGNWVVIDGGSAPENDIVAIRELRPTRLLIVDATDMGLNPGEIRIIDPDDIAEMFMMTTHNMPLNYLIDQLKEDIGEVIFLGIQPDIVGFYYPMTQPIKDAVETVYQRLEGWEGNGGFAQLAVEEE", "protein production": "not failed"},
      {"sequence": "VTEEEIHAMLEEGSVAGIIEQQEHEMVRNVFRLDDRQLGSLMVPRADIIYLDTALPLEENMKRVVESEHSRFPVCHNGLQSLLGVVNAKQLLAQTIKGGVTNLAEHLQPCVYVPETLTGMELLDHFRTSGTQMVFVVDEYGEIQGLVTLQDMLEAVTGEFA", "protein production": "not failed"},
      {"sequence": "VTLSSGMQALLDDKFVYLAVNQAYAEKLNLTIDQVIGKHPRDIYSKGYFESELKIYSERCLAGEIIKLEKWMRSSSGQAWFIDIEMSPYYQNDGNIYGVMVNARDIT", "protein production": "failed"},
      {"sequence": "VYGSEVESKIIEFTIVGADEIIAEKLGISVGDFVYKIIRLRIIHSIPTIMEHTWMPISVIPGVEVSVLEESIYSHIQNKLGLQVGTSVVRVKGIRPDDKEKQFMNLTNQDFLMRVEQVAYLTDGRTFEYSYADHLPETFEFETVITAKSYKEA", "protein production": "not failed"},
      {"sequence": "VYRRILLTVDEDDNTSSERAFRYATTLAHDYDVPLGICSVLESEDINIFDSLTPSKIQAKRKHVEDVVAEYVQLAEQRGVNQVEPLVYEGGDVDDVILEQVIPEFKPDLLVTGADTEFPHSKIAGAIGPRLARKAPISVIVVR", "protein production": "failed"},
      {"sequence": "WFMPFDNWLYQLQNADPVEISSSGFEIAVIDYSKDGSESGEYSPEEIKIMVDAGVVPVAYVNIGQAEDYRFYWKESWYTNTPEWLGEEDPAWPGNYFVKYWYNEWKEIVFSYLDRVIDQGFKGIYLDRIDSFEYWAQEGVISRRSAARKMINFVLEIAEYVRERKPDMLIIPQNGENILDFDDGQLASTVSGWAVENLFYLKTIPLEENETKSRLEYLIRLNRKGKFILSVDYVDDGSDSFENISRILDYYEKAKRNGCIPYAARSDLELDEMNVIEGIQPPEALKDYESRTYR", "protein production": "not failed"},
      {"sequence": "WMLGIPIGGLLAFILGGAALSVFHFGMDYTNRNEFCYSCHIGMDTIVEEYQASPHFKNAQGVIAATCSDCHVPREFFAKIALKIGATADIYHKLKGDITLDNFEAEHRPRLAAEVTQQFIENKSKQCRYCHSVDKMDFEAQGRTVARRHQMMESRDQSCIDCHAGIAHHLPISLDSPET", "protein production": "failed"},
      {"sequence": "WPGRDRLRHLEPLRSITQLAALLANELEASVSPDTPLLLAGHSMGAQVAFETCRLLEQRGLAPQGLIISGCHAPHLHSERQLSHRDDADFIAELIDIGGCSPELRENQELMSLFLPLLRADFYATESYHYDSPDVCPPLRTPALLLCGSHDREASWQQVDAWRQWLSHVTGPVVIDGDHFYPIQQARSFFTQIVRHFP", "protein production": "failed"},
      {"sequence": "WPIWTRRSDGTLSFANAAYARATDASDAADAIGRNLELLDSGDRAALARALGDGYEYSGRLPIVVGGERRYYDVRALKVSGGSAGIAVDATETAALGAALERMADAHRRTLDQLSSGVAVFDAQRRLSFYNDSYRKLWDL", "protein production": "failed"},
      {"sequence": "WYENYRWFFTSEGFLVIGGRTAEMNEEIVAKHLESLDLFFHTQTPGAPAVILKRGQEAGEESIREAAEFAATYSALWKEGKHAGEVYYVLPEQVSKSAKAGEYLPK", "protein production": "failed"},
      {"sequence": "YALTEGEDYLVLDKPIPQEQPGKIEVLEFFGYFCVHCHHFDPLLLKLGKALPSDTYLRTEHVVWRPEMLGLARMAAAVKLSGLKYQANSAVFKAVYEQKIRLENRAVAGKWALSQKGFDGKKLMRAYDSPEAAAVALKMQKLTEQYGIDSTPTVIVGGKYRVIFNNGFDGGVHTIKELVAK", "protein production": "failed"},
      {"sequence": "YDFIDNPGFDESHSLTEMREAFLSFFEDRDHERIDPYPVAANRWRDDVLLTQASIYDFQPLVTSGTTPPPANPLCISQPCIRMQDIDNVGKTGRHTMAFEMMAHHAFNAREDIEDPEQYAYEGEVYWKNETVQYCDELFEEMGANLDEIVYIEDPWVGGGNAGPAIEVIYRGAELATLVFMSMEQDSDGEYEMKDGNRYSPMDTYIVDTGYGLERWTWMSQGTPTVYEAVYPDMIAFLKDNAGIELTDEEERIVHEAAKLAGRMDI", "protein production": "failed"},
      {"sequence": "YDQVTRIIGVAKDITDQIEASESLRDSEQRYRMLAESISDVIFSTDSKLSLNYVSPSVHAVLGYDVEWIFQNGWQSTIANPQQLSGIYTLMDRVSKALDKPEQLAQLRSQVQTQLFLFDCLRADGRKIPIELRLVLVWDEHGAFEGVLGVGRDISQQRRAEKDLRMAATVFEHSTS", "protein production": "failed"}
    ]}
  ]
}
